Measured values as given in article PMC2873508.

Assays:
[1] = target: feline CD134 on MCC cells (feline)
[2] = target: CD134 on MYA-1 cells (not stated (endogenous in MYA-1 cells))
[3] = target: CD134 on MYA-1 cells (not stated (endogenous in MYA-1 cells)); remark: listed apart in the source
[4] = target: Chimaeric GL8 (ABSN) Env with the V4-V5 region of variant B14 (feline immunodeficiency virus (FIV), strain GL8 | feline immunodeficiency virus (FIV), strain GL8, in vivo variant)
[5] = target: FIV GL8 Env (molecular clone 414) (feline immunodeficiency virus (FIV), strain GL8)

| Substance | ratio of luciferase counts (CPM) of HIV(FIV) pseudotype infection on MCC cells with feline CD134 divided by counts on MCC cells with the feCRD1 chimera (feline CRD1 x human CD134); dependency on CRD2 [1] | inhibition of HIV(FIV) pseudotype infection of MYA-1 cells by anti-CD134 antibody 7D6 (series 0.4 to 50 μg/ml; reduced by 90% at 0.4 μg/ml) (% reduction of infection) [2] | percent infection of MYA-1 cells by HIV(FIV) pseudotype with anti-CD134 antibody, relative to no antagonist (Fig. 7A) [3] [% infection] | percent infection of MYA-1 cells by HIV(FIV) pseudotype (Env with cell CD134) with sFc-CD134, relative to no antagonist (Fig. 7B) [4] [% infection] | percent infection of MYA-1 cells by HIV(FIV) pseudotype (Env with cell CD134) with sFc-CD134, relative to no antagonist (Fig. 7B) [5] [% infection] |
| --- | --- | --- | --- | --- | --- |
| FIV B2542 Env (natural protein) | 5 |  |  |  |  |
| FIV Env of A613 variant B14 (natural protein) | 10 | > 99 | 19.5 |  |  |
| FIV Env of A613 variant B23 (natural protein) | 223 |  |  |  |  |
| soluble Fc-CD134 (Fc fusion) |  |  |  | 65.1 | 18.4 |
